# Values of other authors, collected in publication PMC6302113.
# Target: IL-22 (Homo sapiens) (UniProt Q9GZX6)
# Sequence of UniProt Q9GZX6 (Q9GZX6 34-179): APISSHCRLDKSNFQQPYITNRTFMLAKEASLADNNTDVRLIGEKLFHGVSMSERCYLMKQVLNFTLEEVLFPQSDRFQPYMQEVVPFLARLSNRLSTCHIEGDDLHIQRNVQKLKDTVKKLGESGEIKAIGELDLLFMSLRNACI
substance,measurement,value
IL-22BPi2 (from UniProt Q969J5),Kd,1 pM
